According to the nanobody polyreactivity screen of Harvey et al. (2022):

Test: yeast display, Sf9 membrane polyspecificity reagent, FACS + sequencing; frameworks hold sequencing errors
Summary of the method: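 Galactose induction of a Saccharomyces cerevisiae BJ5465 synthetic nanobody display library ran 36–48 hours. The cells were then stained for 1 hour at 4 °C with 10% biotinylated, detergent-solubilized Sf9 membrane reagent, pulled down on streptavidin microbeads and FACS-sorted into low and high (top ~1%) gates on expression and reagent-binding fluorescence. Labels for polyreactivity follow the gate of origin.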

Sequence	polyreactivity (PSR sort gate)
QVQLVESGGGLVQAGGSLRLSCAASGSTLYGYVMGWYRQAPGKERELVADITWSGGSTYYADSVKGRFIISRDNAKNTVYLQMNSLKPEDTAVYYCNADRYGIYYYSRLPFDYWGQGTQVTVSS	low polyreactivity
QVQLVESGGGLVQAGGSLRLSCAASGSTLYHNAMGWYRQAPGKERELVAAITRGGSTYYADSVKGRFTISRDNAKNTVYLQMNILKPEDTAVYYCAVAVLVYYGKYYPYKMYYWGQGTQVTVSS	high polyreactivity
QVQLVESGGGLVQAGGSLRLSCAASGSTLYLNAMGWYRQAPGKERELDASISNGVNTNYADSVKGRFTISRDNAKNTVYLLMNSLKPEDTAVYYCAKEKRFQKTVHRKPAYDYWGQGTQVTVSS	low polyreactivity
QVQLVESGGGLVQAGGSLRLSCAASGSTLYPYAMGWYRQAPGKEWELVAVITLRGGSTYYADSVKGRFTISRDNAKNSVSVQMKSLKPEDTAVYYCAADPRKVHSDDYDYWGQGTQVNVSS	high polyreactivity
QVQLVESGGGLVQAGGSLRLSCAASGSTLYPYDMGWYRPAPGKERELVAAIDSGGSTNYADSVKGRFTISRDNAKNTVYLQMNSLKPEDTAVYYCATEILTSARDTVVYQFYLGYYYWGQGTQVTVSS	low polyreactivity
QVQLVESGGGLVQAGGSLRLSCAASGSTLYRYAMGWYRQAPGKERELVAAITRGSGSTYYADSVKGRFTISRDNAKNTVYLQMNSLKPEDTAVYYCATVKRNHLDGFEYWGQGTQVTVSS	high polyreactivity
QVQLVESGGGLVQAGGSLRLSCAASGSTLYSYAMGWSRQAPGKEREFVAAITSDDGSTYYADSVKGRFTISRDNAKNTVYLQMNSLKPEDTAVYYCATAGSVEYNYWGQGTQVTVSS	low polyreactivity
QVQLVESGGGLVQAGGSLRLSCAASGSTLYVNAMGCYIQAPGKERELVAAISSGGGRTYYADSVKGRFTISRDNAKNTVYLQMNSLKPEETAVYYCARKPYYPYDYWGQGTLVTVSS	low polyreactivity
QVQLVESGGGLVQAGGSLRLSCAASGSTLYWNAMGWYRQAPGKDRELVATINTNGGSTYYADSVKGRFTISRDNAKNTVYLQMNSLKPEDTAVYYCAAQVRQWGYFRYYYWGQGTQVTVSS	high polyreactivity
QVQLVESGGGLVQAGGSLRLSCAASGSTQNVYAMGWYRQATGKERELVAAIRWSGDTYYADSVKGRFTISRDNAKNTVYLQMNSLKPEDTAVYYCAAVPGTTYWQRFDYWGQGTQVTVSS	low polyreactivity
QVQLVESGGGLVQAGGSLRLSCAASGSTQYWNAMGWYRQAPGKERELVAAISRSGGSTYYADSVKGRFTISRDNAKNTVYLQINSLKPEDTAVYYCAARRYVPHTEYYYWGQGTQVTVSS	low polyreactivity
QVQLVESGGGLVQAGGSLRLSCAASGSTRFWKDMGWYRQAPWKERELVAVISFSGVSTYYADSVKGRFTISRDNAKNTVYIQMNRLKPEDTAVYYCAIEDGYSQLKTTFDEPGYGSWGQGTQVNVSS	low polyreactivity
QVQLVESGGGLVQAGGSLRLSCAASGSTRRDYVMGWYRQAPGKERELVAAITSRVDDTYYADSVKGRFTISRDNAKNTVYLQLNSLKPEDTAVYYCAADYSVTLRIGGYYWFYAFDYWGQGTQLTVSS	low polyreactivity
QVQLVESGGGLVQAGGSLRLSCAASGSTRYYAMGWYRQAPGKERELVATISSRSRTYYADSVKGRFTISRDNAKNTVYLQMNSLKPDDPAVYYCAARRRRFYYQYYRYDYWGQGTQVTVSS	high polyreactivity
QVQLVESGGGLVQAGGSLRLSCAASGSTSAYYVMGWYRQAPGKERELVAAIDFSGDSTYYADSVKGRFTISRDNAKNTVYLQMNSLKPEDTAVYYCAAELFNYSSLVSYEYWGQGTQVTVSS	high polyreactivity
QVQLVESGGGLVQAGGSLRLSCAASGSTSRKYTMGWYRQAPGKERELVATISWSGGSTNYADSVKGRFTISRDNAKNTVYLQMNSLKPEDTAVYYCNAYVSPRYRGSRYYYWGQGTQVTVSS	high polyreactivity
QVQLVESGGGLVQAGGSLRLSCAASGSTSRYNAMGWYRQAPGKERELVARINSGGTTNYADSVKGRFTISRDNAKNTVYLQMNSLKPEDTAVYYCNAYYYFWGQGTQVTVSS	low polyreactivity
QVQLVESGGGLVQAGGSLRLSCAASGSTSRYYDMGWYRQAPGTERELVAAITWSGGTTYYADSVKGRFTISRDNAKNTVYLQMNSLKPEDTAVYYCAASRRGGLYTRYHYWGQGTQVTVSS	low polyreactivity
QVQLVESGGGLVQAGGSLRLSCAASGSTSSLNAMGWYRQAPGKEREFVATISFGGGRTYYADSVKGRFTISRDNAKNTVYLQMNSLKPEDTAVYYCAAVGSRWFSQTWRDYWGQGTQVTVSS	high polyreactivity
QVQLVESGGGLVQAGGSLRLSCAASGSTSSVMLWMGWYRQAPGKEREFVAGISWIDATTYYADSVKGRFTISRDNAKNTVYLQMNSLKPEDTAVYYCAADVRWLWYWYGRYDYWGQGTQVTVSS	high polyreactivity

Sequence	polyreactivity (PSR sort gate)
QVQLVESGGGLVQAGGSLRLSCAASGSTSTYNAMGWYRQAPGTERELVAAITESGGSTYYADSVKGRFTISRDNAKNTVYLQMNSLKPEDTAVYYCAADQTYTYDYWGQGTQVTVSS	low polyreactivity
QVQLVESGGGLVQAGGSLRLSCAASGSTSVDYTMGWYRQAPGKESELVAAIDYNGDSTYYADSVKGRFTISRDNAKITVYLQMNRLKPEDTAVYYCAADVWTLDPDEYDYWGQGTQVTLSS	low polyreactivity
QVQLVESGGGLVQAGGSLRLSCAASGSTSVGNAMGWYRQAPGKERELVAAISRIGGTTYYADSVKGRFTISRDNAKNTVYLQMNSLKPEDTAVYYCNVLKRYWSGRVDYWGQGTQVTVSS	high polyreactivity
QVQLVESGGGLVQAGGSLRLSCAASGSTSVYYAMGWYRQTPGKERELVAAITWDDGSTSYADSVKGRFTISRDNAKNTVYLQMNSLKPEDTAVYYCAKDYEYLGAFNYWGQGTQVTVSS	low polyreactivity
QVQLVESGGGLVQAGGSLRLSCAASGSTSWYNAMGWYRQAPGKESELVAAISKSGTSTHYADSVKGRFTISRDNAKNTVYIQMNSRKPEDTAVYYCNRVRYALRRFYGTAVGYWGQGTQVTVSS	low polyreactivity
QVQLVESGGGLVQAGGSLRLSCAASGSTSYTNAMGWYRQAPGKERELVAGITRSGDSTYYADSVKGRFTISRDNAKNTVYLQMNSLKPEDTAVYYCAAEYSGQYYSPVSYLYDYWGQGTQVTVSS	high polyreactivity
QVQLVESGGGLVQAGGSLRLSCAASGSTSYVYAMGWYRQAPGKEREFVAAIRSSGGDTYYADSVKGRFTISRDNAKNTVYLQMNRLKPEDSAVYYCNDRYATAVARFGYWGQGTQVTVSS	high polyreactivity
QVQLVESGGGLVQAGGSLRLSCAASGSTTSVNAMGWYTQAPGKEREFVATISFGGGRTYYADSVKGRFTISRDNAKNTVYLQRNSRKPEDTAVYYCAAVGSRWFSQTWRDYWGQGTQVTVSS	high polyreactivity
QVQLVESGGGLVQAGGSLRLSCAASGSTTYAMGWYRQAPVKERELVAGITFSGGSTNYADSVKGRFTISRDNAKNTVYLQMNSLKPEDTAVYYCAAKLWHHSYRYDYWGQGTQVTVSS	low polyreactivity
QVQLVESGGGLVQAGGSLRLSCAASGSTVAYYAMGWYRQAPGKERELVAAITWNGGRTFYADSVKGRFTISRDNAKNTVYLQMNSLKPEDTAVYYCAAATYQSRYFQRFDYWGQGTQVTVSS	high polyreactivity
QVQLVESGGGLVQAGGSLRLSCAASGSTVDANAMGWYRPAPGKERELVATISDGGSTNYADSVKGRFTISRDNAKKTVYVQKNSLKPEDTAVYYCAAVKLFLGLGYDYWGQGTQVTVSS	low polyreactivity
QVQLVESGGGLVQAGGSLRLSCAASGSTVHYMGWYRPAPGKERELVAGISWSGGSTYYADSVKGRFTISRDNAKNTVYLQMTSLKPEDTAVYYCAADIKIRLYTTGDYWGQGTQVTVSS	low polyreactivity
QVQLVESGGGLVQAGGSLRLSCAASGSTVYLNAMGWYRQAPGKDRELVAAITRIGGSTYYADSVKGRFTISRDNAKNTVYLQMNSLKPEDTAVYYCAKDYGPARHDRYGYWGLGTQVTVSS	low polyreactivity
QVQLVESGGGLVQAGGSLRLSCAASGSTVYYNAMGWYRQAPGKERELVADITTSGDSTYYADSVKGRFTISRDNAKNTVYFQMNSLKPEDTAVYYCNAGVVGDYPYWGLMDYWGQGTQVTVSS	high polyreactivity
QVQLVESGGGLVQAGGSLRLSCAASGSTWWYDMGSYRQAPGKERELVASISSGDSTNYADSVKGRFTISRDNAKNTVYLQMNSLKPEDTAVYYCAADFNFGFVWGDDYDYWGQGTQVTVSS	low polyreactivity
QVQLVESGGGLVQAGGSLRLSCAASGSTYAMGWYRQAPGKERELVASITSRGGSTYYADSVKGRFTISRDNANNTVYLQMNSLKPEDTAVYYCAARWYYSYICYDYWRQGTQVTVSS	high polyreactivity
QVQLVESGGGLVQAGGSLRLSCAASGSTYDSNAMGWYRQAPGKERELVAAIDWSGGSTYYADSVKGRFTISRDNAKNTVYLQMNSLKPADTAVYYCAADDSSINYGDFDYWGQGTQVTVSS	low polyreactivity
QVQLVESGGGLVQAGGSLRLSCAASGSTYFRNAMGWYRQAPGKERELVADISASGGSTYYADSVKGRFTISRDNAKNTVYLQMNSLKPEDTAVYYCNALYIYFYNYLTIVYWGQGTQVTVSS	low polyreactivity
QVQLVESGGGLVQAGGSLRLSCAASGSTYGIYAMGWYRQAPGKERELVAAISSGGSTNYADSVKGRFTISRDNAKNTVYLQMNSLKPEDTAVYYCAVESVYEYGGYVDSAYDYWGQGTQVTVSS	low polyreactivity
QVQLVESGGGLVQAGGSLRLSCAASGSTYPYPYTMGWSRQAPGKERELVAVISRTGGSTFYADSVKGRFTISRDNAKNTVHLQMNSLKPEDTAVYYCAARRDGWTFWKYDYWGQGTQVTVSS	high polyreactivity
